# T1: DNA ligase IV catalytic domain (lysyl-AMP at K273 in open complex) (human, UniProt P49917 1-620)
# T1 sequence: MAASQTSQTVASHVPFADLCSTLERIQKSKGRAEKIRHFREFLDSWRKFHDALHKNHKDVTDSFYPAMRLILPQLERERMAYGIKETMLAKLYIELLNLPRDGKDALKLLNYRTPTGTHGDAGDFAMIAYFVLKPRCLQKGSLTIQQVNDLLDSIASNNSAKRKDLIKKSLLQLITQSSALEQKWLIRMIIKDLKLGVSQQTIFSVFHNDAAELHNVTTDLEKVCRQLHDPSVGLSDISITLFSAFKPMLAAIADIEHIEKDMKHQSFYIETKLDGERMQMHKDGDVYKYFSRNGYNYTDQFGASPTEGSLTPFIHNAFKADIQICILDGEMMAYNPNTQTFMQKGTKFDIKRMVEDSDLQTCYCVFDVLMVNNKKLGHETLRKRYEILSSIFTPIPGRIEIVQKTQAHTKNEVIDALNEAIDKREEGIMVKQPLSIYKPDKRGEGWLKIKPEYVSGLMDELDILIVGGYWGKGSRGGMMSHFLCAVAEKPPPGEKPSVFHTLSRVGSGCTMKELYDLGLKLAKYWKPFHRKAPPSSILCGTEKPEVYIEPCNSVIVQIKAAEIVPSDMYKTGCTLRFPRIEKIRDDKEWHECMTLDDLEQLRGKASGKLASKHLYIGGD
# B1: nicked DNA duplex (crystal), 5'-phosphate downstream primer (dsDNA)
# DNA 1: GTCCGACGACGCATCAGC
# DNA 2: GCTGATGCGTC
# DNA 3: GTCGGAC
# modifications: upstream primer 3'-dideoxycytidine; downstream primer 5'-phosphate
# B2: nicked DNA-adenylate duplex (crystal), 5'-AMP downstream primer (dsDNA)
# DNA 1: GTCCGACGACGCATCAGC
# DNA 2: GCTGATGCGTC
# DNA 3: GTCGGAC
# modifications: upstream primer 3'-dideoxycytidine; downstream primer 5'-adenylated (AMP-p, transferred from K273 in the complex)
# Columns and labels:
# [1] = target: T1, DNA ligase IV catalytic domain …; experiment: X-ray crystallography; lysyl-AMP (K273), open conformation, 10 mM MgCl2; 3.25 A; Crystals: protein pre-incubated with 4 mM MgCl2, 1 mM ATP, 1 h on ice, DNA added at 2:1 molar ratio, 1 h on ice; HEPES pH 7.5 (77-79 mM), ~7.8% isopropanol, ~15.5% PEG4000, ~13.6% glycerol, +/- 10 mM MgCl2, room temperature. Mutants only tested by ligation turnover (no binding read-out).; details: protein: recombinant; tags: 6xHis-SUMO, removed with Ulp1; nicked duplex, 18 bp, blunt ends; nick between strand 2 (11 nt) and strand 3 (7 nt)
# [2] = target: T1, DNA ligase IV catalytic domain …; experiment: X-ray crystallography; DNA-adenylate, closed conformation, no metal bound; Crystals: protein pre-incubated with 4 mM MgCl2, 1 mM ATP, 1 h on ice, DNA added at 2:1 molar ratio, 1 h on ice; HEPES pH 7.5 (77-79 mM), ~7.8% isopropanol, ~15.5% PEG4000, ~13.6% glycerol, +/- 10 mM MgCl2, room temperature. Mutants only tested by ligation turnover (no binding read-out).; details: protein: recombinant; tags: 6xHis-SUMO, removed with Ulp1; nicked duplex, 18 bp, blunt ends; nick between strand 2 (11 nt) and strand 3 (7 nt)
Binder,binding result [1],binding result [2]
B1,binds,
B2,,binds
